In publication PMC8868134 (Antibiotics, 2022):

Target: T1, MexB (RND inner membrane transporter) (Pseudomonas aeruginosa, UniProt P52002 1-1046)
T1 sequence: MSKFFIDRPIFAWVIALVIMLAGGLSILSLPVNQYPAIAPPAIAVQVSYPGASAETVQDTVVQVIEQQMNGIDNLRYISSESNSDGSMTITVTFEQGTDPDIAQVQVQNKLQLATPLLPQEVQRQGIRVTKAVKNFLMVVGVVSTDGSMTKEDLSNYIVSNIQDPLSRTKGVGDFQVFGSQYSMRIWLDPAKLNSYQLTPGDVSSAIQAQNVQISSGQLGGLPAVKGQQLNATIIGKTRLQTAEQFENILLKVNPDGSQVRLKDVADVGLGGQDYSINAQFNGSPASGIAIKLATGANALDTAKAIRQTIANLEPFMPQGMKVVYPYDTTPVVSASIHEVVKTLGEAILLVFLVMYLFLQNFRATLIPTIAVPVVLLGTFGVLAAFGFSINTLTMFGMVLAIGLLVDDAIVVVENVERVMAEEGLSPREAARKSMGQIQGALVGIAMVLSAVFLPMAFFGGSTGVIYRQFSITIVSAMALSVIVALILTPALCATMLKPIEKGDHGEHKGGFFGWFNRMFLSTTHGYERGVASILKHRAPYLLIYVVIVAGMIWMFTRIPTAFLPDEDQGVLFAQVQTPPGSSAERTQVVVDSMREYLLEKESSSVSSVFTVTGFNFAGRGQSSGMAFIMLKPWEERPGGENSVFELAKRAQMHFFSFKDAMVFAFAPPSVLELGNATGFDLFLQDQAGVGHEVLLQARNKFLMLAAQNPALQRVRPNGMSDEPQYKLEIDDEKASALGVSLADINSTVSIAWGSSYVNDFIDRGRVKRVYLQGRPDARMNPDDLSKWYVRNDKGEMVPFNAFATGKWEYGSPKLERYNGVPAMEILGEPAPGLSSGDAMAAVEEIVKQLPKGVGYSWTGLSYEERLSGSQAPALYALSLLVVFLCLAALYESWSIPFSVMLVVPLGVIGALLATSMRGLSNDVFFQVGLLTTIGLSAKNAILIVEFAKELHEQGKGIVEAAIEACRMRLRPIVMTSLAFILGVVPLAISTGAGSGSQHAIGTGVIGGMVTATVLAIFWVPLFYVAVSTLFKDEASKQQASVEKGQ
Experiment: BLI

B1: MexA wild type (periplasmic adaptor protein of MexA-MexB-OprM) (natural protein)
chain: CGKSEAPPPAQTPEVGIVTLEAQTVTLNTELPGRTNAFRIAEVRPQVNGIILKRLFKEGSDVKAGQQLYQIDPATYEADYQSAQANLASTQEQAQRYKLLVADQAVSKQQYADANAAYLQSKAAVEQARINLRYTKVLSPISGRIGRSAVTEGALVTNGQANAMATVQQLDPIYVDVTQPSTALLRLRRELASGQLERAGDNAAKVSLKLEDGSQYPLEGRLEFSEVSVDEGTGSVTIRAVFPNPNNELLPGMFVHAQLQEGVKQKAILAPQQGVTRDLKGQATALVVNAQNKVELRVIKADRVIGDKWLVTEGLNAGDKIITEGLQFVQPGVEVKTVPAKNVASAQKADAAPAKTDSKG
- Kd: 23 µM
- koff: 0.0055 s⁻¹
